In article PMC4100210 (Nature communications, 2014):
Changes are numbered by the printed parent chain. Ends that are not written are not given here.

How the values were obtained:
Dvl2 full-length protein = biological target: T1, Dvl2 full-length protein (human, UniProt O14641 1-736); experiment: pull-down
T1 sequence (looked up): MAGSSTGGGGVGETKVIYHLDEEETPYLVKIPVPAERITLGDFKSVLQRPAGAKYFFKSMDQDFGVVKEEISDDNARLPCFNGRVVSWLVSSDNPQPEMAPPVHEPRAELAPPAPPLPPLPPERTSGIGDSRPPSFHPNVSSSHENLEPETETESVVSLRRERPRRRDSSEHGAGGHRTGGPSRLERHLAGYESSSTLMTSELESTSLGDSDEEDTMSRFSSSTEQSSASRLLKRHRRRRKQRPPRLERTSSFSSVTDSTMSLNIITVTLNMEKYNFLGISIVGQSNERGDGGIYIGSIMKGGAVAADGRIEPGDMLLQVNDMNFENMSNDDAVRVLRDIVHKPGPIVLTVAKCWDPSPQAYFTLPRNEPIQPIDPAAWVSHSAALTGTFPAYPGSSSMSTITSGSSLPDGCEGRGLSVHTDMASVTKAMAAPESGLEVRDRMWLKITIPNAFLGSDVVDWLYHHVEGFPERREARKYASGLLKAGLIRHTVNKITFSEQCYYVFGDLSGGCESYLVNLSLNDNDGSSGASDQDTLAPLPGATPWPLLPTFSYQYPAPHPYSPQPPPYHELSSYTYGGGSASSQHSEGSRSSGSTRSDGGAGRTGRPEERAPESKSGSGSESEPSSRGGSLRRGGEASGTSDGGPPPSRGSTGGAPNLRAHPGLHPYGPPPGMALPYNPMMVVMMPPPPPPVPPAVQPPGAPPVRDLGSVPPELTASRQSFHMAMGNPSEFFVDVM

Dvl2 FL F277A/M300A = biological target: T2, Dvl2 FL F277A/M300A (human, UniProt O14641 1-736, F277A | M300A); experiment: pull-down
T2 sequence (looked up): T1 sequence (looked up) with F277A, M300A

{GST}-GKTLQSWRRFYHRLSHSSKGETAV [GST-Fz7 fusion peptide (GST-GKTLQSWRRFYHRLSHSSKGETAV)]: binds (Dvl2 full-length protein); binds (Dvl2 FL F277A/M300A).
